The text below walks through data of the Human Domainome abundance scans (Beltran et al. 2025).

B1: POU domain, class 4, transcription factor 2, residues 256 to 327; numbered along this chain, Q12837 (parent)
chain: RDLEAFAERFKQRRIKLGVTQADVGSALANLKIPGVGSLSQSTICRFESLTLSHNNMIALKPILQAWLEEAE

± gives the uncertainty stated by the source.

Variants of B1 are the subject of this series. The series can be described thus: abundance fitness (aPCA) (normalised: wild type 0, dead -1); higher = more abundant; growth selection in yeast, the domain comes from the species named. Particulars: Homo sapiens.
For the variant RDLEAFAERFKQRRIKLGVTQADVGSALANLKIPGVGSLSQSTICRFESLTLSHVNMIALKPILQAWLEEAE [N55V], the abundance fitness was -0.013 ± 0.1.
Turning to RDLEAFAERFKQRRIKLGVTQADVGSALANLKIPGVGSLSQSTICRFESLTLSHTNMIALKPILQAWLEEAE [N55T], the abundance fitness was -0.024 ± 0.074.
For RDLEAFAERFKQRRIKLGVTQADVGSALANLKIPGVGSLSQSTICRFESLTLSHWNMIALKPILQAWLEEAE [N55W], the abundance fitness was -0.403 ± 0.083.
As for RDLEAFAERFKQRRIKLGVTQADVGSALANLKIPGVGSLSQSTICRFESLTLSHNNMCALKPILQAWLEEAE [I58C], the abundance fitness is -0.374 ± 0.21.
Consider RDLEAFAERFKQRRIKLGVTQADVGSALANLKIPGVGSLSQSTICRFESLTLSHNNMYALKPILQAWLEEAE [I58Y], for which the abundance fitness was -0.461 ± 0.16.
In the case of RDLEAFAERFKQRRIKLGVTQADVGSALANLKIPGVGSLSQSTICRFESLTLSHNNMLALKPILQAWLEEAE [I58L], the abundance fitness amounted to 0.02 ± 0.056.
For RDLEAFAERFKQRRIKLGVTQADVGSALANLKIPGVGSLSQSTICRFESLTLSHNNMEALKPILQAWLEEAE [I58E], the abundance fitness is -0.258 ± 0.12.
Turning to RDLEAFAERFKQRRIKLGVTQADVGSALANLKIPGVGSLSQSTICRFESLTLSHNNMHALKPILQAWLEEAE [I58H], the abundance fitness is -0.237 ± 0.23.
With RDLEAFAERFKQRRIKLGVTQADVGSALANLKIPGVGSLSQSTICRFESLTLSHNNMAALKPILQAWLEEAE [I58A], the abundance fitness was -0.139 ± 0.079.
As for RDLEAFAERFKQRRIKLGVTQADVGSALANLKIPGVGSLSQSTICRFESLTLSHNNMFALKPILQAWLEEAE [I58F], the abundance fitness was -0.287 ± 0.11.
In the case of RDLEAFAERFKQRRIKLGVTQADVGSALANLKIPGVGSLSQSTICRFESLTLSHNNMKALKPILQAWLEEAE [I58K], the abundance fitness is 0.063 ± 0.076.
For RDLEAFAERFKQRRIKLGVTQADVGSALANLKIPGVGSLSQSTICRFESLTLSHNNMGALKPILQAWLEEAE [I58G], the abundance fitness is -0.287 ± 0.076.
To RDLEAFAERFKQRRIKLGVTQADVGSALANLKIPGVGSLSQSTICRFESLTLSHNNMVALKPILQAWLEEAE [I58V] belongs -0.028 ± 0.081; to RDLEAFAERFKQRRIKLGVTQADVGSALANLKIPGVGSLSQSTICRFESLTLSHNNMDALKPILQAWLEEAE [I58D], -0.615 ± 0.27.
Take RDLEAFAERFKQRRIKLGVTQADVGSALANLKIPGVGSLSQSTICRFESLTLSHNNMPALKPILQAWLEEAE [I58P]: the abundance fitness is -0.854 ± 0.17.
With RDLEAFAERFKQRRIKLGVTQADVGSALANLKIPGVGSLSQSTICRFESLTLSHNNMRALKPILQAWLEEAE [I58R], the abundance fitness turned out to be 0.07 ± 0.045.
RDLEAFAERFKQRRIKLGVTQADVGSALANLKIPGVGSLSQSTICRFESLTLSHNNMWALKPILQAWLEEAE [I58W]: the abundance fitness is -0.152 ± 0.061.
For the variant RDLEAFAERFKQRRIKLGVTQADVGSALANLKIPGVGSLSQSTICRFESLTLSHNNMTALKPILQAWLEEAE [I58T], the abundance fitness is -0.235 ± 0.14.
To RDLEAFAERFKQRRIKLGVTQADVGSALANLKIPGVGSLSQSTICRFESLTLSHNNMSALKPILQAWLEEAE [I58S] belongs -0.017 ± 0.057; to RDLEAFAERFKQRRIKLGVTQADVGSALANLKIPGVGSLSQSTICRFESLTLSHNNMMALKPILQAWLEEAE [I58M], -0.118 ± 0.12; to RDLEAFAERFKQRRIKLGVTQADVGSALANLKIPGVGSLSQSTICRFESLTLSHNNMNALKPILQAWLEEAE [I58N], -0.077 ± 0.28.
Regarding RDLEAFAERFKQRRIKLGVTQADVGSALANLKIPGVGSLSQSTICRFESLTLSHNNMITLKPILQAWLEEAE [A59T], the abundance fitness was -0.038 ± 0.075.
RDLEAFAERFKQRRIKLGVTQADVGSALANLKIPGVGSLSQSTICRFESLTLSHNNMIYLKPILQAWLEEAE [A59Y]: the abundance fitness was -0.026 ± 0.095.
As for RDLEAFAERFKQRRIKLGVTQADVGSALANLKIPGVGSLSQSTICRFESLTLSHNNMIGLKPILQAWLEEAE [A59G], the abundance fitness was -0.169 ± 0.097.
Next, RDLEAFAERFKQRRIKLGVTQADVGSALANLKIPGVGSLSQSTICRFESLTLSHNNMIVLKPILQAWLEEAE [A59V]: -0.207 ± 0.074; RDLEAFAERFKQRRIKLGVTQADVGSALANLKIPGVGSLSQSTICRFESLTLSHNNMIMLKPILQAWLEEAE [A59M]: -0.003 ± 0.075.
To RDLEAFAERFKQRRIKLGVTQADVGSALANLKIPGVGSLSQSTICRFESLTLSHNNMIILKPILQAWLEEAE [A59I] belongs 0.027 ± 0.14; to RDLEAFAERFKQRRIKLGVTQADVGSALANLKIPGVGSLSQSTICRFESLTLSHNNMILLKPILQAWLEEAE [A59L], -0.091 ± 0.049.
As for RDLEAFAERFKQRRIKLGVTQADVGSALANLKIPGVGSLSQSTICRFESLTLSHNNMIKLKPILQAWLEEAE [A59K], the abundance fitness was -0.057 ± 0.14.
Regarding RDLEAFAERFKQRRIKLGVTQADVGSALANLKIPGVGSLSQSTICRFESLTLSHNNMIHLKPILQAWLEEAE [A59H], the abundance fitness was -0.249 ± 0.11.
As for RDLEAFAERFKQRRIKLGVTQADVGSALANLKIPGVGSLSQSTICRFESLTLSHNNMIQLKPILQAWLEEAE [A59Q], the abundance fitness worked out at 0.062 ± 0.082.
RDLEAFAERFKQRRIKLGVTQADVGSALANLKIPGVGSLSQSTICRFESLTLSHNNMICLKPILQAWLEEAE [A59C]: the abundance fitness is -0.431 ± 0.12.
With RDLEAFAERFKQRRIKLGVTQADVGSALANLKIPGVGSLSQSTICRFESLTLSHNNMIRLKPILQAWLEEAE [A59R], the abundance fitness is -0.032 ± 0.043.
With RDLEAFAERFKQRRIKLGVTQADVGSALANLKIPGVGSLSQSTICRFESLTLSHNNMIELKPILQAWLEEAE [A59E], the abundance fitness is -0.193 ± 0.17.
As to RDLEAFAERFKQRRIKLGVTQADVGSALANLKIPGVGSLSQSTICRFESLTLSHNNMIWLKPILQAWLEEAE [A59W], the abundance fitness is -0.087 ± 0.074.
Next, RDLEAFAERFKQRRIKLGVTQADVGSALANLKIPGVGSLSQSTICRFESLTLSHNNMISLKPILQAWLEEAE [A59S]: -0.095 ± 0.051; RDLEAFAERFKQRRIKLGVTQADVGSALANLKIPGVGSLSQSTICRFESLTLSHNQMIALKPILQAWLEEAE [N56Q]: 0.275 ± 0.39.
